Broadly, the Kd is the concentration at which binding is half-saturated. By koff is commonly meant a measure of how fast the partners let go of each other. A lower koff goes with slow dissociation. By kon is commonly meant the second-order rate constant of association. Low readings indicate slow association, high ones fast association. One may read the EC50 as the concentration needed to bring the measured effect to its halfway point. A lower EC50 goes with an effect from little substance. What is called IC50 is the concentration that inhibits the measured activity by half. Read a low IC50 as greater potency in that assay.

For test [1], the target named is T1, human TIGIT (form in the assay not stated) (human, UniProt Q495A1 22-141, limits assumed).
T1 construct: whole entry named
T1 sequence: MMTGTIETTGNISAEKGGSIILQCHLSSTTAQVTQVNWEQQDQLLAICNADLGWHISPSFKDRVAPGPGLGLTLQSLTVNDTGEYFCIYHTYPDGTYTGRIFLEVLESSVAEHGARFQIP
The test can be described thus: SPR; antibody captured on anti-human Fc surface, TIGIT analyte not named; Test 1. From the text:
(§1) For affinity determination, antibodies were captured by anti-human Fc surface, and used in the affinity-assay based on surface plasmon resonance (SPR) technology.

In test [2] the target is T1, human TIGIT (form in the assay not …). Description: SPR; antibody captured on anti-human Fc surface, TIGIT analyte not named; Test 2.
Excerpt: as §1
(In general: In SPR one partner is held on a chip, and binding of the other changes the refractive index at the surface.)

The target in test [3] is T2, full-length human TIGIT on cells (human, UniProt Q495A1 22-244).
T2 construct: Used for engineered cells (NK92mi/TIGIT, NK92MI/TIGIT-DNAM-1, Jurkat/TIGIT) and for TIGIT on human blood cells; also called native TIGIT; huTIGIT
T2 sequence: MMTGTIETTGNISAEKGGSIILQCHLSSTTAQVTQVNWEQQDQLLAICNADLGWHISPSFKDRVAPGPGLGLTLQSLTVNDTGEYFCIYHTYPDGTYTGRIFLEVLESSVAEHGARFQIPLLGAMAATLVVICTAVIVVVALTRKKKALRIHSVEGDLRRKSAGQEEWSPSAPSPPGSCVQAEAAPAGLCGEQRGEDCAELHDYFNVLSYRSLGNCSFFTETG
The test can be described thus: flow cytometry on living NK92mi/TIGIT cells, goat anti-human IgG detection; Test 1. On the procedure:
(§2) To evaluate the binding activity of anti-TIGIT antibodies to native TIGIT on living cells, NK92mi cells were engineered to over-express human TIGIT. Living NK92mi/TIGIT cells were seeded in 96-well plate and were incubated with a series of dilutions of anti-TIGIT antibodies. Goat anti-Human IgG was used as secondary antibody to detect antibody binding to the cell surface. EC₅₀ values for dose-dependent binding to human native TIGIT were determined by fitting the dose-response data to the four-parameter logistic model with GraphPad Prism. As show in FIG. 4A-B and Table 6.
Background: A flow cytometer gives signals particle by particle.

The target of test [4] is T2, full-length human TIGIT on cells. The test can be described thus: flow cytometry on living NK92mi/TIGIT cells, goat anti-human IgG detection; Test 2. The procedure: as §2
Test [5] deals with T1, human TIGIT (form in the assay not …). Description: SPR; antibody captured on anti-human Fc surface, TIGIT analyte not named; mean of Tests 1 and 2.
Excerpt: as §1

The target in test [6] is T3, humanized TIGIT of humanized TIGIT knock-in mice, on CD3+ splenocytes.
T3 chain: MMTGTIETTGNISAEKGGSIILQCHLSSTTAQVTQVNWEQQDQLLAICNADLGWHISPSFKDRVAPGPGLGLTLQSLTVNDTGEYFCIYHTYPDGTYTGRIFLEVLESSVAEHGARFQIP
The test can be described thus: TIGIT receptor occupancy assay on CD3+ splenocytes from humanized TIGIT knock-in mice.

In test [7] the target is T2, full-length human TIGIT on cells. Description: TIGIT receptor occupancy assay on CD3+ human peripheral blood mononuclear cells; CD3+ human peripheral blood mononuclear cells.
The target of test [8] is T4, TIGIT-his (human, UniProt Q495A1 22-141).
T4 construct: also called human TIGIT; not shown: his tag
T4 sequence: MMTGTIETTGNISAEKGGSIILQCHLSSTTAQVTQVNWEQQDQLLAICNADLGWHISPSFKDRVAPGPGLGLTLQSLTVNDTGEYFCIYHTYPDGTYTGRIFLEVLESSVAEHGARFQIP
The test can be described thus: SPR; antibody immobilized on CM5 chip, TIGIT-his as analyte, HBS pH 6.0.

In test [9] the target is T4, TIGIT-his. Description: SPR; antibody immobilized on CM5 chip, TIGIT-his as analyte, HBS pH 7.4.
Test [10] concerns the target T5, TIGIT-mIgG2a (human; mouse, UniProt Q495A1 22-141).
T5 construct: also called soluble TIGIT; TIGIT-mIgG2a fusion protein
T5 sequence: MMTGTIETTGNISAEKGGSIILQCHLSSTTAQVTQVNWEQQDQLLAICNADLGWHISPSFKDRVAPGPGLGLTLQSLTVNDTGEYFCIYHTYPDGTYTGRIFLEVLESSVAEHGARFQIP
Description: flow cytometry; blockade of soluble TIGIT binding to PVR on HEK293/PVR cells. From the text: (§3) To determine whether anti-TIGIT antibodies could block TIGIT-PVR and TIGIT-PVR-L2 interactions, HEK293 cells were engineered to express high levels of PVR or PVR-L2. The resultant cell lines were named HEK293/PVR and HEK293/PVR-L2, respectively. […] The blockade of TIGIT-ligand interaction was quantitatively measured by adding serially diluted anti-TIGIT antibodies.

The target in test [11] is T5, TIGIT-mIgG2a. Description: flow cytometry; blockade of soluble TIGIT binding to PVR-L2 on HEK293/PVR-L2 cells.
Excerpt: as §3

Test [12] deals with T4, TIGIT-his. Description: SPR; antibody immobilized on CM5 chip, TIGIT-his as analyte, HBS pH 6.0; column head prints nM, koff/kon gives M.
Test [13] addresses T4, TIGIT-his. The test can be described thus: SPR; antibody immobilized on CM5 chip, TIGIT-his as analyte, HBS pH 7.4; column head prints nM, koff/kon gives M.
The target of test [14] is T1, human TIGIT (form in the assay not …). The test can be described thus: SPR; antibody captured on anti-human Fc surface, TIGIT analyte not named; Test 1; Test 1.
Excerpt: as §1

Test [15] addresses T6, TIGIT-huIgG1 (human, UniProt Q495A1 22-141).
T6 construct: also called Human Fc-tagged TIGIT; TIGIT-huIgG1 fusion protein
T6 sequence: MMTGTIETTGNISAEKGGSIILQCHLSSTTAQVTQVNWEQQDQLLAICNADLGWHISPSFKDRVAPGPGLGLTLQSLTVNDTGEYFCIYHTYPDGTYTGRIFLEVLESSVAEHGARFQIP
The test can be described thus: SPR (BIAcore T-200); human Fc-tagged TIGIT captured by anti-human IgG, antibody as analyte. The procedure: (§4) Briefly, anti-human IgG antibody was immobilized on an activated CM5 biosensor chip (Cat. No.: BR100530, GE Life Sciences). Human Fc-tagged TIGIT was flowed over the chip surface and captured by anti-human IgG antibody. Then a serial dilution (0.12 nM to 10 nM) of purified murine antibodies were flowed over the chip surface and changes in surface plasmon resonance signals were analyzed to calculate the association rates (kₒₙ) and dissociation rates (koff) by using the one-to-one Langmuir binding model (BIA Evaluation Software, GE Life Sciences). The equilibrium dissociation constant (KD) was calculated as the ratio koff/kₒₙ.

The target in test [16] is T6, TIGIT-huIgG1. The test can be described thus: SPR (BIAcore T-200); human Fc-tagged TIGIT captured by anti-human IgG, antibody as analyte; column head prints nM, koff/kon gives M. On the procedure:
as §4

B1: hu1217-1-1 (antibody, V domains shown)
VH: EVQLVESGGGLVQPGGSLRLSCATSGFTFSDYYMYWIRQAPGKGLEWVAYITKGGGSTYYPDSVKGRFTISRDNAKNTLYLQMNSLRAEDTAVYYCARQTNYDFTMDYWGQGTLVTVSS
VL: EIVMTQSPATLSVSPGERATLSCKASQDVGTSVAWYQQKPGQAPRLLIYWASARHTGVPARFSGSGSGTEFTLTISSLQSEDFAVYYCQQYSSYPLTFGGGTKVEIK
notes: Full-length human IgG1mf/kappa format; not shown: human kappa light chain constant region
With B1, the Kd in test [1] worked out at 0.309 nM; in [2], 0.52 nM; in test [5], 0.415 nM. Further, the koff stood at 0.000448 s⁻¹ in test [1] and 0.000694 s⁻¹ in test [2]. In addition, the kon in [1] turned out to be 1.45e+06 M⁻¹ s⁻¹; in [2], 1.33e+06 M⁻¹ s⁻¹. Further, the EC50 was 0.114 µg/mL in test [3] and 0.084 µg/mL in [4].

B2: hu1217-2-2 (as named in Examples 12 to 14, Fc format not stated) (antibody, V domains shown)
VH: EVQLVESGGGLVQPGGSLRLSCAASGFTFSDYYMYWVRQAPGKGLEWVAYITKGGGSTYYPDSVKGRFTISRDNAKNTLYLQMNSLRAEDTAVYYCARQTNYDFTMDYWGQGTLVTVSS
VL: EIVMTQSPATLSVSPGERATLSCKASQDVGTSVAWYQQKPGQAPRLLIYWASARHTGIPARFSGSGSGTEFTLTISSLQSEDFAVYYCQQYSSYPLTFGGGTKVEIK
notes: kept apart from m7 and m8 for that reason; also called Antibody hu1217-2-2
As to B2, the results for the EC50 in test [6] and in test [7] were 0.0488 µg/mL and 0.0632 µg/mL, respectively.

B3: hu1217-2-2/IgG1wt (antibody, V domains shown)
VH: EVQLVESGGGLVQPGGSLRLSCAASGFTFSDYYMYWVRQAPGKGLEWVAYITKGGGSTYYPDSVKGRFTISRDNAKNTLYLQMNSLRAEDTAVYYCARQTNYDFTMDYWGQGTLVTVSS
VL: EIVMTQSPATLSVSPGERATLSCKASQDVGTSVAWYQQKPGQAPRLLIYWASARHTGIPARFSGSGSGTEFTLTISSLQSEDFAVYYCQQYSSYPLTFGGGTKVEIK
notes: Humanized version with a wild-type IgG1 Fc region and the same VH and VL as hu1217-2-2/IgG1mf
Take B3: the koff in test [8] came to 7.6e-05 s⁻¹; in test [9], 9.53e-05 s⁻¹. In addition, the on-rate constant (kon) turned out to be 2.54e+06 M⁻¹ s⁻¹ in test [8] and 434000 M⁻¹ s⁻¹ in test [9]. Further, the results for the IC50 in test [10] and in test [11] were 0.64 µg/mL and 0.25 µg/mL, respectively. For the same molecule, the results for the Kd in test [12] and in test [13] were 0.0299 nM and 0.219 nM, respectively.

B4: hu1217-2-2/IgG1mf (antibody, V domains shown)
VH: EVQLVESGGGLVQPGGSLRLSCAASGFTFSDYYMYWVRQAPGKGLEWVAYITKGGGSTYYPDSVKGRFTISRDNAKNTLYLQMNSLRAEDTAVYYCARQTNYDFTMDYWGQGTLVTVSS
VL: EIVMTQSPATLSVSPGERATLSCKASQDVGTSVAWYQQKPGQAPRLLIYWASARHTGIPARFSGSGSGTEFTLTISSLQSEDFAVYYCQQYSSYPLTFGGGTKVEIK
notes: not shown: human kappa light chain constant region
For the molecule B4, the IC50 was 0.55 µg/mL in [10] and 0.18 µg/mL in test [11]. For the same molecule, the Kd in [1] amounted to 0.127 nM; in test [2], 0.404 nM; in [5], 0.266 nM. In addition, the koff in test [1] is 0.000229 s⁻¹; in test [2], 0.000608 s⁻¹. Moreover, the kon is 1.5e+06 M⁻¹ s⁻¹ in [2] and 1.8e+06 M⁻¹ s⁻¹ in test [14]. In test [4], this molecule registered an EC50 of 0.068 µg/mL.

B5: mu1217 (antibody, V domains shown)
VH: EVKLVESGGGLVQPGGSLKLSCATSGFTFSDYYMYWIRQTPEKRLEWVAYITKGGGSTYYPDTVKGRFTISRDNAKNTLYLQVSRLKSEDTAIYYCARQTNYDFTMDYWGQGTSVTVSS
VL: DIVMTQSHKFMSTSVGDRVSIICKASQDVGTSVAWYQQKPGQSPNLLIYWASARHTGVPDRFTGSGSGTDFTLTISNVQSEDLADYFCQQYSSYPLTFGAGTKLELK
notes: Purified murine hybridoma antibody; also called murine anti-TIGIT mAb mu1217
In test [15], B5 registered a koff of 3.96e-05 s⁻¹ and a kon of 4.33e+06 M⁻¹ s⁻¹. This molecule also came in with a Kd in [16] of 0.00915 nM.

B6: ch1217 (antibody, V domains shown)
VH: EVKLVESGGGLVQPGGSLKLSCATSGFTFSDYYMYWIRQTPEKRLEWVAYITKGGGSTYYPDTVKGRFTISRDNAKNTLYLQVSRLKSEDTAIYYCARQTNYDFTMDYWGQGTSVTVSS
VL: DIVMTQSHKFMSTSVGDRVSIICKASQDVGTSVAWYQQKPGQSPNLLIYWASARHTGVPDRFTGSGSGTDFTLTISNVQSEDLADYFCQQYSSYPLTFGAGTKLELK
notes: Chimeric: mu1217 variable domains fused to human IgG1mf/kappa constant regions; not shown: human kappa light chain constant region
In test [1], B6 registered a Kd of 0.283 nM, an off-rate constant (koff) of 0.000443 s⁻¹ and a kon of 1.56e+06 M⁻¹ s⁻¹. The EC50 in [3] was determined as 0.1 µg/mL.

The values above are taken from patent US20230391883A1 (BEIGENE SWITZERLAND, published 2023).
